Values belong to the binder of their own block, whether it stands above or below them.
Target: T1, human His-Bub3 full-length recombinant protein (human, UniProt O43684 1-328)
T1 construct: Bub3, human, full-length recombinant protein; also called Recombinant His-Bub3; source: bought: Abcam (ab139802)
Assay: pull-down; recombinant His-Bub3 incubated with GST, GST-NKAP and its deletion mutants; 50 mM Tris–HCl pH 7.5, 150 mM NaCl, 1 mM EDTA, 0.3 mM dithiothreitol, 0.1% NP-40; overnight at 4 °C; bound protein by immunoblot
Conditions: both partners purified

T1 sequence (O43684 whole entry): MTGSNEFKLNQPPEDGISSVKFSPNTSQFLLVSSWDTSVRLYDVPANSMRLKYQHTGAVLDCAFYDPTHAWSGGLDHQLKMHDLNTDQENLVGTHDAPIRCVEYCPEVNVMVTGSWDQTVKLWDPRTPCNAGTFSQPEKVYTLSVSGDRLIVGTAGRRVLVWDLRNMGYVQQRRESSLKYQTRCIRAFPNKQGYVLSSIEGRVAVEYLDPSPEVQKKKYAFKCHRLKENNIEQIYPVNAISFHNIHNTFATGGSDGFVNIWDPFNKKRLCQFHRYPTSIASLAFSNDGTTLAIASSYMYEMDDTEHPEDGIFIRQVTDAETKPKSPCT

- binding result: binds
B1: GST-NKAP deletion mutant aa 1–138 (domain or fragment, human, UniProt Q8N5F7 1-138, looked up)
chain: MAPVSGSRSPDREASGSGGRRRSSSKSPKPSKSARSPRGRRSRSHSCSRSGDRNGLTHQLGGLSQGSRNQSYRSRSRSRSRERPSAPRGIPFASASSSVYYGSYSRPYGSDKPWPSLLDKEREESLRQKRLSERERIG
notes: The text names the region; source: E. coli DH5α, purified (glutathione Sepharose 4B)

- binding result: binds
B2: GST-NKAP deletion mutant aa 139–276 (domain or fragment, human, UniProt Q8N5F7 139-276, looked up)
chain: ELGAPEVWGLSPKNPEPDSDEHTPVEDEEPKKSTTSASTSEEEKKKKSSRSKERSKKRRKKKSSKRKHKKYSEDSDSDSDSETDSSDEDNKRRAKKAKKKEKKKKHRSKKYKKKRSKKSRKESSDSSSKESQEEFLEN
notes: as for B1

Source: PMC5064014, “SUMOylated NKAP is essential for chromosome alignment by anchoring CENP-E to kinetochores” (Nature Communications, 2016)
